Measured values: the supplement of paper PMC5998384

Legend:
HeLa Kyoto [1] = experiment: solubility in G1/S (NP-40 vs SDS abundance) (log2 ratio); higher = more soluble; details: cell cycle stage: G1/S
HeLa Kyoto [2] = experiment: melting temperature (median over replicates), in situ; higher = more thermally stable
HeLa Kyoto [3] = experiment: solubility change mitosis vs G1/S (difference of NP-40 vs SDS log2 ratios) (log2 ratio difference); higher = more soluble in mitosis
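For melting temperature (median over replicates), in situ in this document: HeLa Kyoto cells synchronized by double thymidine or nocodazole block, proteins quantified by TMT10plex mass spectrometry, three independent biological replicates.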
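For solubility change mitosis vs G1/S (difference of NP-40 vs SDS log2 ratios) in this document: synchronized HeLa Kyoto cells (double thymidine block for G1/S, nocodazole release for mitosis), protein amounts in NP-40 versus SDS lysates quantified by mass spectrometry, three biological replicates.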
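For solubility in G1/S (NP-40 vs SDS abundance) in this document: HeLa Kyoto cells arrested at G1/S by double thymidine block, proteins quantified by TMT10plex mass spectrometry in mild NP-40 versus SDS extracts, three biological replicates.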

Sequence	solubility in G1/S (log2) (HeLa Kyoto [1])	melting temperature (HeLa Kyoto [2]; cell cycle stage: mitosis)	solubility change mitosis (log2) (HeLa Kyoto [3])	melting temperature (HeLa Kyoto [2]; cell cycle stage: G1/S)
MDNRFATAFVIACVLSLISTIYMAASIGTDFWYEYRSPVQENSSDLNKSIWDEFISDEADEKTYNDALFRYNGTVGLWRRCITIPKNMHWYSPPERTESFDVVTKCVSFTLTEQFMEKFVDPGNHNSGIDLLRTYLWRCQFLLPFVSLGLMCFGALIGLCACICRSLYPTIATGILHLLAGLCTLGSVSCYVAGIELLHQKLELPDNVSGEFGWSFCLACVSAPLQFMASALFIWAAHTNRKEYTLMKAYRVA [CLDND1]	-0.395	58.6 °C	0.186	–
MSDKPDMAEIEKFDKSKLKKTETQEKNPLPSKETIEQEKQAGES [TMSB4X]	-0.978	50.4 °C	0.302	52.9 °C
MHRAPSPTAEQPPGGGDSARRTLQPRLKPSARAMALPRTLGELQLYRVLQRANLLSYYETFIQQGGDDVQQLCEAGEEEFLEIMALVGMATKPLHVRRLQKALREWATNPGLFSQPVPAVPVSSIPLFKISETAGTRKGSMSNGHGSPGEKAGSARSFSPKSPLELGEKLSPLPGGPGAGDPRIWPGRSTPESDVGAGGEEEAGSPPFSPPAGGGVPEGTGAGGLAAGGTGGGPDRLEPEMVRMVVESVERIFRSFPRGDAGEVTSLLKLNKKLARSVGHIFEMDDNDSQKEEEIRKYSIIYGRFDSKRREGKQLSLHELTINEAAAQFCMRDNTLLLRRVELFSLSRQVARESTYLSSLKGSRLHPEELGGPPLKKLKQEVGEQSHPEIQQPPPGPESYVPPYRPSLEEDSASLSGESLDGHLQAVGSCPRLTPPPADLPLALPAHGLWSRHILQQTLMDEGLRLARLVSHDRVGRLSPCVPAKPPLAEFEEGLLDRCPAPGPHPALVEGRRSSVKVEAEASRQ [NAB2]	0.298	48.9 °C	-0.11	–
MLAYCVQDATVVDVEKRRNPSKHYVYIINVTWSDSTSQTIYRRYSKFFDLQMQLLDKFPIEGGQKDPKQRIIPFLPGKILFRRSHIRDVAVKRLKPIDEYCRALVRLPPHISQCDEVFRFFEARPEDVNPPKEDYGSSKRKSVWLSSWAESPKKDVTGADATAEPMILEQYVVVSNYKKQENSELSLQAGEVVDVIEKNESGWWFVSTSEEQGWVPATYLEAQNGTRDDSDINTSKTGEVSKRRKAHLRRLDRRWTLGGMVNRQHSREEKYVTVQPYTSQSKDEIGFEKGVTVEVIRKNLEGWWYIRYLGKEGWAPASYLKKAKDDLPTRKKNLAGPVEIIGNIMEISNLLNKKASGDKETPPAEGEGHEAPIAKKEISLPILCNASNGSAVGVPDRTVSRLAQGSPAVARIAPQRAQISSPNLRTRPPPRRESSLGFQLPKPPEPPSVEVEYYTIAEFQSCISDGISFRGGQKAEVIDKNSGGWWYVQIGEKEGWAPASYIDKRKKPNLSRRTSTLTRPKVPPPAPPSKPKEAEEGPTGASESQDSPRKLKYEEPEYDIPAFGFDSEPELSEEPVEDRASGERRPAQPHRPSPASSLQRARFKVGESSEDVALEEETIYENEGFRPYAEDTLSARGSSGDSDSPGSSSLSLTRKNSPKSGSPKSSSLLKLKAEKNAQAEMGKNHSSASFSSSITINTTCCSSSSSSSSSLSKTSGDLKPRSASDAGIRGTPKVRAKKDADANAGLTSCPRAKPSVRPKPFLNRAESQSQEKMDISTLRRQLRPTGQLRGGLKGSKSEDSELPPQTASEAPSEGSRRSSSDLITLPATTPPCPTKKEWEGPATSYMTCSAYQKVQDSEISFPAGVEVQVLEKQESGWWYVRFGELEGWAPSHYLVLDENEQPDPSGKELDTVPAKGRQNEGKSDSLEKIERRVQALNTVNQSKKATPPIPSKPPGGFGKTSGTPAVKMRNGVRQVAVRPQSVFVSPPPKDNNLSCALRRNESLTATDGLRGVRRNSSFSTARSAAAEAKGRLAERAASQGSDSPLLPAQRNSIPVSPVRPKPIEKSQFIHNNLKDVYVSIADYEGDEETAGFQEGVSMEVLERNPNGWWYCQILDGVKPFKGWVPSNYLEKKN [SH3PXD2A]	0.0755	49 °C	0.1	49.5 °C
MVMYARKQQRLSDGCHDRRGDSQPYQALKYSSKSHPSSGDHRHEKMRDAGDPSPPNKMLRRSDSPENKYSDSTGHSKAKNVHTHRVRERDGGTSYSPQENSHNHSALHSSNSHSSNPSNNPSKTSDAPYDSADDWSEHISSSGKKYYYNCRTEVSQWEKPKEWLEREQRQKEANKMAVNSFPKDRDYRREVMQATATSGFASGMEDKHSSDASSLLPQNILSQTSRHNDRDYRLPRAETHSSSTPVQHPIKPVVHPTATPSTVPSSPFTLQSDHQPKKSFDANGASTLSKLPTPTSSVPAQKTERKESTSGDKPVSHSCTTPSTSSASGLNPTSAPPTSASAVPVSPVPQSPIPPLLQDPNLLRQLLPALQATLQLNNSNVDISKINEVLTAAVTQASLQSIIHKFLTAGPSAFNITSLISQAAQLSTQAQPSNQSPMSLTSDASSPRSYVSPRISTPQTNTVPIKPLISTPPVSSQPKVSTPVVKQGPVSQSATQQPVTADKQQGHEPVSPRSLQRSSSQRSPSPGPNHTSNSSNASNATVVPQNSSARSTCSLTPALAAHFSENLIKHVQGWPADHAEKQASRLREEAHNMGTIHMSEICTELKNLRSLVRVCEIQATLREQRILFLRQQIKELEKLKNQNSFMV [WAC]	0.525	49.9 °C	0.139	46.5 °C
MTGKSVKDVDRYQAVLANLLLEEDNKFCADCQSKGPRWASWNIGVFICIRCAGIHRNLGVHISRVKSVNLDQWTQEQIQCMQEMGNGKANRLYEAYLPETFRRPQIDPAVEGFIRDKYEKKKYMDRSLDINAFRKEKDDKWKRGSEPVPEKKLEPVVFEKVKMPQKKEDPQLPRKSSPKSTAPVMDLLGLDAPVACSIANSKTSNTLEKDLDLLASVPSPSSSGSRKVVGSMPTAGSAGSVPENLNLFPEPGSKSEEIGKKQLSKDSILSLYGSQTPQMPTQAMFMAPAQMAYPTAYPSFPGVTPPNSIMGSMMPPPVGMVAQPGASGMVAPMAMPAGYMGGMQASMMGVPNGMMTTQQAGYMAGMAAMPQTVYGVQPAQQLQWNLTQMTQQMAGMNFYGANGMMNYGQSMSGGNGQAANQTLSPQMWK [SMAP2]	0.111	49.6 °C	-0.0647	48.3 °C
MASRRKSTTPCMVLASEQDPDLELISDLDEGPPVLTPVENTRAESISSDEEVHESVDSDNQQNKKVEGGYECKYCTFQTPDLNMFTFHVDSEHPNVVLNSSYVCVECNFLTKRYDALSEHNLKYHPGEENFKLTMVKRNNQTIFEQTINDLTFDGSFVKEENAEQAESTEVSSSGISISKTPIMKMMKNKVENKRIAVHHNSVEDVPEEKENEIKPDREEIVENPSSSASESNTSTSIVNRIHPSTASTVVTPAAVLPGLAQVITAVSAQQNSNLIPKVLIPVNSIPTYNAALDNNPLLLNTYNKFPYPTMSEITVLSAQAKYTEEQIKIWFSAQRLKHGVSWTPEEVEEARRKQFNGTVHTVPQTITVIPTHISTGSNGLPSILQTCQIVGQPGLVLTQVAGTNTLPVTAPIALTVAGVPSQNNIQKSQVPAAQPTAETKPATAAVPTSQSVKHETALVNPDSFGIRAKKTKEQLAELKVSYLKNQFPHDSEIIRLMKITGLTKGEIKKWFSDTRYNQRNSKSNQCLHLNNDSSTTIIIDSSDETTESPTVGTAQPKQSWNPFPDFTPQKFKEKTAEQLRVLQASFLNSSVLTDEELNRLRAQTKLTRREIDAWFTEKKKSKALKEEKMEIDESNAGSSKEEAGETSPADESGAPKSGSTGKICKKTPEQLHMLKSAFVRTQWPSPEEYDKLAKESGLARTDIVSWFGDTRYAWKNGNLKWYYYYQSANSSSMNGLSSLRKRGRGRPKGRGRGRPRGRPRGSKRINNWDRGPSLIKFKTGTAILKDYYLKHKFLNEQDLDELVNKSHMGYEQVREWFAERQRRSELGIELFEENEEEDEVIDDQEEDEEETDDSDTWEPPRHVKRKLSKSDD [ZHX1]	0.0738	48.9 °C	-0.162	48.3 °C
